In PMC5858146:

Experiments:
[1] = molecular target: Porcine gastric mucin (PGM) (porcine); experiment: ITC; ITC-200 at 37 °C, pH 4.5; PGM solution (40 μM) in the 200 μL cell, KTN or KOS solution (1% w/v) in the syringe
[2] = molecular target: Porcine gastric mucin (PGM) (porcine); experiment: ITC; ITC-200 at 37 °C, pH 7.4; PGM solution (40 μM) in the 200 μL cell, KTN or KOS solution (1% w/v) in the syringe
[3] = molecular target: Porcine gastric mucin (PGM) (porcine); experiment: as above; remark: listed apart in the source
[4] = molecular target: Porcine gastric mucin (PGM) (porcine); experiment: as above; remark: listed apart in the source

**Q.** How did the Ka [1] turn out when kerateine (reduced keratin, KTN) was run?
**A.** 398000 M⁻¹

**Q.** What about the dH [1] of the same substance?
**A.** -2.41 kcal/mol

**Q.** What about the stoichiometry N [1] of the same substance?
**A.** 1.23

**Q.** And the Ka [2]?
**A.** 10700 M⁻¹

**Q.** What about the dH [2] of the same substance?
**A.** -3.47 kcal/mol

**Q.** And the stoichiometry N [2]?
**A.** 1.5

**Q.** What does the source list for keratose (oxidized keratin, KOS)?
**A.** Ka [1]: 15500 M⁻¹; dH [1]: -4.25 kcal/mol; stoichiometry N [1]: 1.15; Ka [2]: 4140 M⁻¹; dH [2]: -61.1 kcal/mol; stoichiometry N [2]: 1.27; Ka [3]: 41400 M⁻¹; dH [4]: 61.1 kcal/mol
